Measurements reported in patent US20210347913A1 (published 2021).
Where a chain is given by its changes, count along the chain named.

T1: PTK7 on PTK7 positive cell line SaOS-2 (osteosarcoma) (UniProt Q13308 31-1070)
T1 chain: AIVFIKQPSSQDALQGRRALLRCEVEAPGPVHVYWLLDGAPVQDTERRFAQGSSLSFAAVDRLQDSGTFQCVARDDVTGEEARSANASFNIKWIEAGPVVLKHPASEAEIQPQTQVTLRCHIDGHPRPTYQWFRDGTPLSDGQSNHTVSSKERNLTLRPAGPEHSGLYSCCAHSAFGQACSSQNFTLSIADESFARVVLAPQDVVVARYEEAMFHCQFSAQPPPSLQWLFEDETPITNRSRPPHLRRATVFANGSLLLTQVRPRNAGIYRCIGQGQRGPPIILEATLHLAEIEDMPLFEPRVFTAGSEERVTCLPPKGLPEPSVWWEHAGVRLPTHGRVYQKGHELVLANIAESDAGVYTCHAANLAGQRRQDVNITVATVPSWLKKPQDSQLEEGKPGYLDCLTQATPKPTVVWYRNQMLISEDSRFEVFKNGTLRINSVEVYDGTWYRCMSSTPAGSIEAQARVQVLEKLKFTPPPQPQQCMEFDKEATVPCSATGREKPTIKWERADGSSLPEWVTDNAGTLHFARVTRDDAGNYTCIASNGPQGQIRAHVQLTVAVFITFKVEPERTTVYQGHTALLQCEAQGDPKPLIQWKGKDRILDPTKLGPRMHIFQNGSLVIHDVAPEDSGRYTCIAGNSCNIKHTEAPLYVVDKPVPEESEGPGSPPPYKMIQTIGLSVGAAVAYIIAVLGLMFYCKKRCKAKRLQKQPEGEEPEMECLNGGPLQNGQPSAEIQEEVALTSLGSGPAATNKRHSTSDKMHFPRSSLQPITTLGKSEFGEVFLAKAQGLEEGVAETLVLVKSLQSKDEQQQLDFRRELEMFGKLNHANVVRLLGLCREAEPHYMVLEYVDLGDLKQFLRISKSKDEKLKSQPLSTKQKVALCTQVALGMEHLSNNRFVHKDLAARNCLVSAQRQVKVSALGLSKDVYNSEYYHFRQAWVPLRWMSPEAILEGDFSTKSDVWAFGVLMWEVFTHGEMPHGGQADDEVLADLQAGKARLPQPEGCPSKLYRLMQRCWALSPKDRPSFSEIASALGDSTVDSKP

B1: 181 M9 (antibody)
chain: QGCHIGKRPVPCLWIGSSGGSGGSGGSGGGPLGLAGGSSGQVQLVESGGGVVQPGRSLRLSCAASGFTFSSYGMHWVRQAPGKGLEWVAVIWDDGSNKYYVDSVKGRFTISRDNSKNTLYLQMNSLRAEDTAVYYCARDDYYGSGSFNSYYGTDVWGQGTTVTVSSGGGGSGGGGSGGGGSEIVLTQSPATLSLSPGERATLSCRASQSVSIYLAWYQQKPGQAPRLLIYDASNRATGIPARFSGSGSGTDFTLTISSLEPEDFAVYYCQQRSNWPPFTFGPGTKVDISAAAFVPVFLPAKPTTTPAPRPPTPAPTIASQPLSLRPEACRPAAGGAVHTRGLDFACDIYIWAPLAGTCGVLLLSLVITLYCNHRNRSKRSRLLHSDYMNMTPRRPGPTRKHYQPYAPPRDFAAYRSRVKFSRSADAPAYQQGQNQLYNELNLGRREEYDVLDKRRGRDPEMGGKPRRKNPQEGLYNELQKDKMAEAYSEIGMKGERRRGKGHDGLYQGLSTATKDTYDALHMQALPPR
B2: 181 M13 (antibody)
chain: QGCTYPPRFHMHWLCGSSGGSGGSGGSGGGPLGLAGGSSGQVQLVESGGGVVQPGRSLRLSCAASGFTFSSYGMHWVRQAPGKGLEWVAVIWDDGSNKYYVDSVKGRFTISRDNSKNTLYLQMNSLRAEDTAVYYCARDDYYGSGSFNSYYGTDVWGQGTTVTVSSGGGGSGGGGSGGGGSEIVLTQSPATLSLSPGERATLSCRASQSVSIYLAWYQQKPGQAPRLLIYDASNRATGIPARFSGSGSGTDFTLTISSLEPEDFAVYYCQQRSNWPPFTFGPGTKVDIKSAAAFVPVFLPAKPTTTPAPRPPTPAPTIASQPLSLRPEACRPAAGGAVHTRGLDFACDIYIWAPLAGTCGVLLLSLVITLYCNHRNRSKRSRLLHSDYMNMTPRRPGPTRKHYQPYAPPRDFAAYRSRVKFSRSADAPAYQQGQNQLYNELNLGRREEYDVLDKRRGRDPEMGGKPRRKNPQEGLYNELQKDKMAEAYSEIGMKGERRRGKGHDGLYQGLSTATKDTYDALHMQALPPR
B3: 181 M14 (antibody)
chain: B2 chain with Y5H, P6V, P7A, R8Q, F9W, H10A, M11I, H12K, W13A, L14F
B4: 181 M5 (antibody)
chain: B2 chain with P7S, R8W, F9V, H10A, M11Y, H12I, W13R, L14F
B5: 181 M4 (antibody)
chain: B2 chain with Y5F, P7N, R8T, F9T, H10M, M11Q, H12R, W13T, L14F
B6: 181 M12 (antibody)
chain: B2 chain with Y5M, P7V, R8H, F9T, H10Y, M11S, H12Q
B7: 181 M3 (antibody)
chain: B2 chain with Y5M, R8S, F9P, H10R, M11S, H12K, W13V, L14I
B8: 181 M7 (antibody)
chain: B2 chain with Y5M, P7Y, R8H, F9I, M11S, H12I, W13G
B9: 181 M6 (antibody)
chain: B2 chain with C3V, T4C, Y5T, P6Y, R8P, F9A, M11R, H12T, W13R, L14F
B10: 181 M8 (antibody)
chain: B2 chain with C3W, T4C, Y5T, P6I, R8S, F9S, H10M, M11S, H12I, W13R
B11: 181 M10 (antibody)
chain: QGCYIGLRMVPCFHMGSSGGSGGSGGSGGGPLGLAGGSSGQVQLVESGGGVVQPGRSLRLSCAASGFTFSSYGMHWVRQAPGKGLEWVAVIWDDGSNKYYVDSVKGRFTISRDNSKNTLYLQMNSLRAEDTAVYYCARDDYYGSGSFNSYYGTDVWGQGTTVTVSSGGGGSGGGGSGGGGSEIVLTQSPATLSLSPGERATLSCRASQSVSIYLAWYQQKPGQAPRLLIYDASNRATGIPARFSGSGSGTDFTLTISSLEPEDFAVYYCQQRSNWPPFTFGPGTKVDIKSAAAFVPVFLPAKPTTTPAPRPPTPAPTIASQPLSLRPEACRPAAGGAVHTRGLDFACDIYIWAPLAGTCGVLLLSLVITLYCNHRNRSKRSRLLHSDYMNMTPRRPGPTRKHYQPYAPPRDFAAYRSRVKFSRSADAPAYQQGQNQLYNELNLGRREEYDVLDKRRGRDPEMGGKPRRKNPQEGLYNELQKDKMAEAYSEIGMKGERRRGKGHDGLYQGLSTATKDTYDALHMQALPPR
B12: 181 M11 (antibody)
chain: B2 chain with Y5M, P7S, R8H, F9A, H10V, M11A, H12S, W13F

Biological target: T1, PTK7 on PTK7 positive cell line SaOS-2 …
Assay: FACS binding SaOS-2

| EC50 | Binder |
| --- | --- |
| 141 nM | B1 |
| 40.9 nM | B2 |
| 68.8 nM | B3 |
| 29.9 nM | B4 |
| 16.7 nM | B5 |
| 93.8 nM | B6 |
| 225 nM | B7 |
| 118 nM | B8 |
| 30.5 nM | B9 |
| 101 nM | B10 |
| 1350 nM | B11 |
| 222 nM | B12 |

Biological target: T1, PTK7 on PTK7 positive cell line SaOS-2 …
Assay: FACS binding SaOS-2; +MMP14

| EC50 | Binder |
| --- | --- |
| 0.38 nM | B2 |
| 0.41 nM | B5 |
| 0.95 nM | B7 |
| 0.8 nM | B10 |
| 0.49 nM | B11 |

Biological target: T1, PTK7 on PTK7 positive cell line SaOS-2 …
Assay: FACS binding SaOS-2; -MMP14

| EC50 | Binder |
| --- | --- |
| 58.6 nM | B2 |
| 20.8 nM | B5 |
| 406 nM | B7 |
| 96.9 nM | B10 |
| 434 nM | B11 |
